Literature values as cited in PMC4488278.

Biological target: EGFR (Homo sapiens) (UniProt P00533)

Kd: 1 nM
Substance: EGF (from UniProt P01133)
